Measurements published in paper PMC6331215 (Journal of molecular biology, 2018).

Legend:
[1] = target: M. marinum EspG3 (construct for SAXS) (M. marinum E11) (UniProt B2HNX0); test: SAXS
SAXS = target: the molecule itself; test: SAXS

Row | Molecule | dimeric fraction at 4.0 mg/ml (wing-shaped dimer model, 4L4W) [1] | dimeric fraction at 6.0 mg/ml (wing-shaped dimer model, 4L4W) [1] | stoichiometry N (SAXS)
1 | M. marinum EspG3 (construct for SAXS) (from UniProt B2HNX0 1-298) (natural protein) | 1 | 1 | 
2 | M. marinum EspG1 (natural protein) MTGPLATGRAGTGDDVVGVEVTIDGMLVIADRLHLVDFPVTLGIRPNIPQEDLREIVWDQVARDLTAQGVLDHNGQPHPAVAAMVDTLSRADRTLEGRWWRRDVGGVMVRFVVCRKGERHVIAVRDGDMLVLQLVAPRVGLAGMVTAVLGTAEPANVEPLTGIASELGECTNAAQLTRYGLTPTTARLYTEIVTNPKSWVEIVASERHPGGTTTHTKAAAGVLDSAHGRLVSLPRQVGGELYGSFLPGTEQNLQRALDSLLELLPSGSWLDRADATARG |  |  | 2
